# B1: His6-SUMO-INI1183-304 (other)
# chain: PEVLVPIRLDMEIDGQKLRDAFTWNMNEKLMTPEMFSEILCDDLDLNPLTFVPAIASAIRQQIESYPTDSILEDQSDQRVIIKLNIHVGNISLVDQFEWDMSEKENSPEKFALKLCSELGLG
# notes: range 183-304; also called 6His-SUMO-INI1183-304; Rpt1 (cartoon label); not shown: His6-SUMO (h6-smt3) tag from pET28a-h6-smt3
# Molecular target: T1, GST-CTD (C-terminal domain of HIV-1 integrase, aa 201-288, GST fusion) (HIV-1 (Hx3B), UniProt P04585 1348-1435)
# T1 construct: domain: C-terminal (IN-CTD, aa 201-288 of integrase); also called IN-CTD; pGST-IN-CTD(aa 201-288); not shown: GST tag from pGEX3xPL vector
# Experiment: Alpha proximity competition, low salt: increasing INI1183-304 added to GST-CTD + biotinylated TAR RNA; displaced competitor is TAR RNA
binder,measurement,value
B1,IC50,~5 nM

# Source: US20240317826A1 (ALBERT EINSTEIN COLLEGE OF MEDICINE, published 2024)
